In patent US20120039802A1 (published 2012):

B1: 470-A02 peptide-displaying phage (SEQ ID NO: 031) (peptide)
peptide: AGQAVCEWGPFWCQMQGT
B2: 470-E11 peptide-displaying phage (SEQ ID NO: 005) (peptide)
peptide: GSLIFCPYGECMMYAP
B3: 444-B08 peptide-displaying phage (SEQ ID NO: 028) (peptide)
peptide: AGTIRCNLAMMVCMFEGT
B4: 471-A11 peptide-displaying phage (SEQ ID NO: 040) (peptide)
peptide: AGIWFCNNEEKSCWAYGT
B5: 571-C11 peptide-displaying phage (SEQ ID NO: 035) (peptide)
peptide: AGMDFCEGFWFLCIGNAT
B6: 569-H10 peptide-displaying phage (SEQ ID NO: 004) (peptide)
peptide: GSMLMCELWWCRFLAP
B7: 448-H02 peptide-displaying phage (SEQ ID NO: 033) (peptide)
peptide: AGPLFCFEWPSLCHWGGT
B8: 465-D01 peptide-displaying phage (SEQ ID NO: 034) (peptide)
peptide: AGNLPCHWNMSVCDHQGT
B9: 465-F10 peptide-displaying phage (SEQ ID NO: 039) (peptide)
peptide: AGKQWCVVWEETCDQLGT
B10: 465-B11 peptide-displaying phage (SEQ ID NO: 036) (peptide)
peptide: AGLLGCWDMPMECTGEGT
B11: 546-E02 peptide-displaying phage (SEQ ID NO: 366) (peptide)
peptide: GSHHTCLDGFAGWRCTEVAP
B12: 573-E07 peptide-displaying phage (SEQ ID NO: 025) (peptide)
peptide: AGWTWCDLSMMSCIFHGT
B13: 465-C07 peptide-displaying phage (SEQ ID NO: 041) (peptide)
peptide: AGHTICQHKALGCPANGT
B14: 465-C11 peptide-displaying phage (SEQ ID NO: 038) (peptide)
peptide: AGKTVCQKWESVCSGMGT
B15: 442-E08 peptide-displaying phage (SEQ ID NO: 037) (peptide)
peptide: AGKYMCEGFEWFCEMWGT
B16: 465-D12 peptide-displaying phage (SEQ ID NO: 030) (peptide)
peptide: AGQMWCAEKNSKCYQWGT
B17: 274-B07 peptide-displaying phage (SEQ ID NO: 073) (peptide)
peptide: AGETVCYWLNGWFCVDDGT
B18: 465-C01 peptide-displaying phage (SEQ ID NO: 032) (peptide)
peptide: AGPYSCHSESHDCKLMGT
B19: 445-E04 peptide-displaying phage (SEQ ID NO: 043) (peptide)
peptide: AGGNWCSFYEELCEWLGT
B20: 458-B05 peptide-displaying phage (SEQ ID NO: 046) (peptide)
peptide: ADAWMCEYFQWNCGDKGT
B21: 465-D09 peptide-displaying phage (SEQ ID NO: 003) (peptide)
peptide: GSSHLCNPEFCHFTAP
B22: 548-F07 peptide-displaying phage (SEQ ID NO: 369) (peptide)
peptide: GSPEMCMMFPFLYPCNHHAP
B23: 470-C02 peptide-displaying phage (SEQ ID NO: 045) (peptide)
peptide: AGFWDCGWMMQDCHMHGT
B24: 465-E09 peptide-displaying phage (SEQ ID NO: 027) (peptide)
peptide: AGTLSCSEEYKSCQLQGT
B25: 545-C02 peptide-displaying phage (SEQ ID NO: 365) (peptide)
peptide: GSWRFCGGEYSFQVCQDVAP
B26: 465-B06 peptide-displaying phage (SEQ ID NO: 044) (peptide)
peptide: AGGHWCLELKHLCPPYGT
B27: 465-D04 peptide-displaying phage (SEQ ID NO: 042) (peptide)
peptide: AGHFECPKHQYMCDMPGT
B28: 465-F08 peptide-displaying phage (SEQ ID NO: 026) (peptide)
peptide: AGVTNCNLSTMFCFLHGT
B29: 465-E11 peptide-displaying phage (SEQ ID NO: 029) (peptide)
peptide: AGQYLCTQAALGCPEWGT

Legend:
[1] = target: T1, human cMet expressed on 3T3 cells (human, UniProt P08581 25-1390); test: whole cell phage ELISA, 3T3 human cMet vs 3T3
T1 construct: whole, on cells; cells fixed with glutaraldehyde; also called cell surface-expressed human cMet; 3T3 cells that over-express human cMet
T1 sequence (P08581 25-1390): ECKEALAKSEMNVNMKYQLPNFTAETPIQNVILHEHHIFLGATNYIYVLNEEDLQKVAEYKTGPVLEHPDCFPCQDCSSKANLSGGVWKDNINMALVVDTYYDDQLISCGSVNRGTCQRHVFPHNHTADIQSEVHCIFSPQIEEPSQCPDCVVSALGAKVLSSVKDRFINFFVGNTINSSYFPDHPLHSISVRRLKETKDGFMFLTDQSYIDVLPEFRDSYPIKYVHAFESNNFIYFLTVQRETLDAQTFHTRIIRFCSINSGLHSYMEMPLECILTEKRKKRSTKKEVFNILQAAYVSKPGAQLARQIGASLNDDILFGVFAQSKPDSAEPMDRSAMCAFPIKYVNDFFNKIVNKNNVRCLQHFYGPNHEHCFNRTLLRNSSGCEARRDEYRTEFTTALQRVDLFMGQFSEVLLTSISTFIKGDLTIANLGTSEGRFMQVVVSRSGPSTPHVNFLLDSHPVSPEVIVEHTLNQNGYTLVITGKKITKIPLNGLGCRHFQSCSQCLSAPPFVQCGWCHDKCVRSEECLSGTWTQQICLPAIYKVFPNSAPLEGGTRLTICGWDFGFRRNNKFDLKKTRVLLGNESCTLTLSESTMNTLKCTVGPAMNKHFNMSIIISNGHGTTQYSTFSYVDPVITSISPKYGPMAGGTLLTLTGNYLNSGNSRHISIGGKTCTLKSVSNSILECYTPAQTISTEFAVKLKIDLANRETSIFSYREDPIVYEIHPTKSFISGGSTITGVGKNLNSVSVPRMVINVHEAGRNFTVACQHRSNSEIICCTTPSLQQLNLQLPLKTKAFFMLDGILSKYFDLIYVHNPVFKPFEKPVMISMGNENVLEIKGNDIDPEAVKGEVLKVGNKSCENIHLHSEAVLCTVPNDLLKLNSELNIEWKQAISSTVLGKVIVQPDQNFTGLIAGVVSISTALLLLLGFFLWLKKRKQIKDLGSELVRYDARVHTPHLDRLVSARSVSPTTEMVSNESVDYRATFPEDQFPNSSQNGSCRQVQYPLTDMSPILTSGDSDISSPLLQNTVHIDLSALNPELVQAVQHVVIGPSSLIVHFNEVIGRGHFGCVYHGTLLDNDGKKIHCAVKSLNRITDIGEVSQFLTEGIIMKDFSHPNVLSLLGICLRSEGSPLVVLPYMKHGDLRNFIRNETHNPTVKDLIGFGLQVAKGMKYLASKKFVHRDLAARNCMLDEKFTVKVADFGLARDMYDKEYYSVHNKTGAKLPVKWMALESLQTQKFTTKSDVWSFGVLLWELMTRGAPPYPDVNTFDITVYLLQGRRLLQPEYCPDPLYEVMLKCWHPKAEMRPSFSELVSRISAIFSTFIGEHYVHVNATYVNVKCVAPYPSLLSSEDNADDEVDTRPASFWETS
Method: Whole cell ELISAs were performed using 3T3 cells that over-express human cMet. […] Briefly, 96-well plates were seeded with 10⁵ cells per well. The plates were centrifuged for 5 minutes at 1600 rpm to pellet the cells. The resulting cell layer was fixed with 0.1% (v/v) glutaraldehyde for 12 minutes at 37 C. […] Peptide-displaying phage also were blocked in the above solution for 1 hour at 37 C. 100 μL of blocked phage was then added to each well and the plates were incubated for 1 hour at room temperature. The plates were washed with PBST. cMet-binding peptide-displaying phage were detected using an HRP-conjugated anti-M13 antibody.

[2] = target: T2, cMet-Fc fusion protein (extracellular domain of the cMet receptor expressed as an Fc-fusion protein) (human, UniProt P08581 25-932); test: phage ELISA on cMet-Fc, competitor HGF 500 ng/mL
T2 construct: extracellular domain; also called soluble cMet-Fc-fusion protein; soluble cMet receptor; not shown: Fc part
T2 sequence (P08581 25-932): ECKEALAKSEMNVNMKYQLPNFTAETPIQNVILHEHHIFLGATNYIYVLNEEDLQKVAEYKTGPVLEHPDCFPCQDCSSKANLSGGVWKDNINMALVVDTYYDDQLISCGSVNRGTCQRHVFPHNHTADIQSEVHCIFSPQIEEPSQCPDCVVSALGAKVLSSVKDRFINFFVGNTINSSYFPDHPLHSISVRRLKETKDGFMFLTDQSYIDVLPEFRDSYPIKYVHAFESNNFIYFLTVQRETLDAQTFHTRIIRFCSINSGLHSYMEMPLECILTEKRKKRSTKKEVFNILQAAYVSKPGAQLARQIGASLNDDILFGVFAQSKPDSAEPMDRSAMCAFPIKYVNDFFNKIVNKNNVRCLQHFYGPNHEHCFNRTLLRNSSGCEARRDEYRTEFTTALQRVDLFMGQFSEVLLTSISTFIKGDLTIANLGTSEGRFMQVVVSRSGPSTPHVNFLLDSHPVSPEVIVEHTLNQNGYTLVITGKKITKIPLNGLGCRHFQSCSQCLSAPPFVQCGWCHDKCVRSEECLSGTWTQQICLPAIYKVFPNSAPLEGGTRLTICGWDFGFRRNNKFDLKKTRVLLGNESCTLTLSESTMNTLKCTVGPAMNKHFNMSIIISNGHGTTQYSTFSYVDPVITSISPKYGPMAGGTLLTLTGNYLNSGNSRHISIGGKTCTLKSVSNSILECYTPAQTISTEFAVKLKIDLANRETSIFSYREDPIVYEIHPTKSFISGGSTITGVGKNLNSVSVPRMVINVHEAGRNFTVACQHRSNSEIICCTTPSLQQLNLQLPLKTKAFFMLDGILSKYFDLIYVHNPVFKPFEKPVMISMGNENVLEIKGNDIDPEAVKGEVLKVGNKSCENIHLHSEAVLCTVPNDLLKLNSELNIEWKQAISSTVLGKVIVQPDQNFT
Method: (§1) These assays were conducted using the peptide-displaying phage discovered from the initial selection and screening campaigns using the first generation peptide libraries. Briefly, 96-well plates were coated overnight at 4 C with 0.5 μg/mL of cMet-Fc fusion protein or TRAIL-Fc fusion protein (background). The plates were blocked for 2 hours at 37 C with 3% BSA in PBST. […] This was followed by an addition of 30 μL of peptide-displaying phage overnight culture to each well. The plates were incubated for 2 hours at room temperature, washed with PBST and cMet-binding peptide-displaying phage was detected using an HRP-conjugated anti-M13 antibody.

[3] = target: T2, cMet-Fc fusion protein (extracellular …); test: phage ELISA on cMet-Fc, competitor HGF 100 ng/mL
Method: as §1

[4] = target: T2, cMet-Fc fusion protein (extracellular …); test: phage ELISA, cMet-Fc vs TRAIL-Fc
Method: Protein phage ELISAs using peptide-displaying phage isolates from the various selection campaigns were performed to determine specificity of the peptides for cMet versus an unrelated Fc-fusion protein (TRAIL-Fe). Briefly, 384-well plates were coated overnight at 4 C with 0.5 μg/mL of cMet-Fc fusion protein or TRAIL-Fc fusion protein (background). The plates were blocked for 2 hours 37 C with 3% (w/v) BSA in PBS containing 0.05% (v/v) Tween-20 (PBST). The plates were washed with PBST and 100 μL of peptide-displaying phage were added to each well. The plates were incubated for 2 hours at room temperature and washed with PBST. cMet-binding peptide-displaying phage were detected using an HRP-conjugated anti-M13 antibody.

Binder | WC ELISA (fold over background) [1] | % of binding in the absence of HGF [2] | % of binding in the absence of HGF [3] | Protein ELISA (fold over background) [4]
B1 | 1.3 fold | 62% | 78% | 3.2 fold
B2 | 1.33 fold | 127% | 55% | 3.5 fold
B3 | 1.43 fold | 93% | 111% | 3.6 fold
B4 | 1.37 fold | 80% | 85% | 3 fold
B5 | 1.23 fold | 72% | 107% | 3.5 fold
B6 | 1.27 fold | 83% | 98% | 3.4 fold
B7 | 1.43 fold | 92% | 113% | 3.8 fold
B8 | 1.3 fold | 134% | 235% | 3.3 fold
B9 | 1.33 fold | 42% | 61% | 3.7 fold
B10 | 1.27 fold | 89% | 97% | 3.6 fold
B11 | – | – | 74% | –
B12 | 1.37 fold | 82% | 77% | 3.2 fold
B13 | 1.27 fold | 138% | 102% | 3.1 fold
B14 | 1.3 fold | 4% | 41% | 3.1 fold
B15 | 1.43 fold | 75% | 81% | 4.1 fold
B16 | 1.27 fold | 0% | 34% | 3.2 fold
B17 | 1.1 fold | 296% | – | 7.8 fold
B18 | 1.27 fold | 23% | 267% | 3.2 fold
B19 | 1.37 fold | 102% | 127% | 4.2 fold
B20 | 1.33 fold | 247% | 201% | 4.5 fold
B21 | 1.3 fold | 70% | 90% | 3.2 fold
B22 | – | 37% | – | –
B23 | 1.33 fold | 227% | 340% | 3.9 fold
B24 | 1.3 fold | 77% | 60% | 3.6 fold
B25 | – | 31% | – | –
B26 | 1.23 fold | 57% | 89% | 4.1 fold
B27 | 1.23 fold | 31% | 77% | 3.1 fold
B28 | 1.3 fold | 116% | 68% | 3.8 fold
B29 | 1.23 fold | 124% | 33% | 4.3 fold
